Reference: patent publication US20240026407A1, “MODIFICATION OF SAPONINS” (GLAXOSMITHKLINE BIOLOGICALS SA, priority 2020, published 2024)

Experiments:
Format in all cases: biochemical, Quillaja saponaria
[1] = Experiment 4-1: screening of glucosidases for deglycosylation with purified QS-18 (0.04 mg/ml) at pH 7.5 and room temperature; conditions: pH 7.5, room temperature, 20 h, clarified E. coli lysate, QS-18 2150 to QS-21 1988 by LCMS/MS
Method in brief: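 Deglycosylation measured by LC-MS/MS as % conversion after 20 h room-temperature incubation of QS-18 phenyl fraction (0.04 mg/ml final) with polymyxin B/lysozyme lysates, pH 7.5 phosphate, of E. coli BL21(DE3) expressing each enzyme; MeCN quench. Positives exceeded negative control by >3 S.D.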

[2] = Experiment 4-2: screening of glucosidases for deglycosylation with purified QS-18 (1 mg/ml) at pH 6 and 30 deg C; conditions: pH 6, 30 degC, 18 hrs, clarified lysate, LCMS/MS
Method in brief: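 Enzyme activity derived from LC-MS/MS analysis after MeCN quench. Substrate QS-18 (1 mg/ml final) was exposed overnight (18 h, 30 °C, pH 6 phosphate buffer) to clarified lysates containing candidate glucosidases.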

[3] = Experiment 4-4: screening of glucosidases for deglycosylation of QS-18 in crude bark extract (1 in 20 dilution) to QS-21; conditions: CBE 1 in 20 dilution, pH 6, 25 degC, 18 hours; % conversion of Middle Peak by UV HPLC
Method in brief: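 Clarified glucosidase lysates were incubated with pH 6 crude bark extract (1 in 20) in potassium phosphate buffer pH 6 for 18 h at 25 °C with shaking, then quenched with MeCN. UV HPLC with MS/MS-supported peak identity; activity is % conversion of the extract's Middle Peak (QS-18 family) toward the QS-21 peak.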

Molecule | Expt 4-1 % conv [1] | Expt 4-2 % conv [2] | Expt 4-4 % conv [3]
63 (protein, listed as Gynuella sunshinyii) MFDPVTILKQLNREEKVQLLCGLDAWHLHGVERLGIPSITLTDGPHGVRLAQSHDVFDSVDATVFPVEAAMAATWNVGLIKELAGAIAKECQQLGVSVLLGPGVNGKRSPLGGRNFEYFSEDPYLTGAMASNFVEGVQSQGVGACLKHFAGNEQETRRFLINSVIDERTLQEMYIAPFAKAIRESRPWTVMGAYNSVNGQFACQNSHLLQDILRDQLGFDGLVMSDWGAVGDKVACHQHGLDLEMPGPADRDQQLLDALDNGDMSEVVLDSRVLKVLELIHKSVTHKRDVQVDFERHHELAIEVACDSAVLLKNSGNLPLDKSRSIGLIGQFAKHPRFQGGGSSHMNPRHLSNAFEAFCSRAEVSWAMGYEELEMTDEMLREAVALAKRVDQVVLLTGTTDALESEGFDRSNMRLPEAHVELIKAVYQTNSNVVVVMYAGSALETRQIEDYAPSLMHAWLPGEGGGEALARLLFGEVSPSGKLSETFPVRLEHNPTYESFPGNKADTIYNEGIFTGYRYYDTKKLPVQYPFGYGLSYTSFAYSDLSYDASCREVAVNVTNIGDMAGAEVVQVYIHDEHSTLRRPDQELKGFAKVMLQPGETQRVSIALDEQAFAYFVTHLQRFAEESGRFEIRVGSSSRDIHESLWIELESDIECRQIPTLNDTVEDWLRDDRTRPILEDAFAQVGFTKDHSFYALTLGFPMTLLKKFMPMMGLTEQQCESLKDKLGLE | 95.6% | 54.2% | <3%
176 (protein, listed as Streptomonospora sp.) MTTANRAAHAADAAREPQVEAALARLDLDGRIRLLSGATMWAIAPNPDIGLERLVMSDGPVGVRGEHWTPDDPALQLPSPTALAATWDTELIRTVGRTLAQEARRKGVHVLLAPTVNIHRSPLGGRHFECYSEDPLLTGRIGTAYVDGVQDGGVGTTVKHFVANDSETDRFTVDVRVDERTLREIYLAPFEAIVDGARPWGVMAAYNGVNGTTMTEHARLNAVLRDEWGFDGFIVSDWTAARDTVGCALAGMDVAMPGPSTVYGENLRAAVREGRVPEGAVEAMARRVLRLAARVGALEGAEPAVAPAALPPAIDGRAVAREAAARSFTLLRNEGRALPIDPARVGSVALIGLAADEARTSGGGSATVFTEHTVSPREGLRAALPESVRLDYAVGADPRASLPPLAGPLTAAFRDADGTVLATERLADGTARWIGELPDGVTAEGLSTIEVSGTLTPAYTGTHVFGAKGVGHFRLAVGGRVGFDGVNEVDGDDPGAGFLNPPESTAEFALTAGEAVEVSVVATVPGVSADFAFIGFSLNHSEPRAGDDELIEEAVRTAAGADVAIVIAATTEEVESEGFDRDSLELPGRQDELVSRVAAANPRTVAVVNTGSPVVMPWRGDVAAVLLTWFGGQELGAALADVLLGAEEPGGRLPTTWPAEQADVPVIGVRPDGGVLEYSEGVFVGYRAWQRLGAEPAYWFGHGLGYTTWDYTGADAAVRLDGGVSVTARLANTGARRGREVVQVYVSPQEEGGAPERPRRWLAGFAPVVAEPGASAEAVVEVPARAFQVWDSAAHDWRTVPGGYDVLVGRSVADTPVSARVEIAG | 1.2% | 0.4% | <3%
354 (protein, listed as Chthonomonas calidirosea) MGKTKRSLKVNRRDFFTLGAATLLAAISLPDGDLLAFAQKEREKDLVYGIRRERFEWAQKKAAALVAQMTREEKISQVGNNVPAIPRLGLPAYNYYSGEALHGLVRGGPVTSFPLPLALANTWNPELQYQVYTAVSDEARAYHNRDGVGLAYYSPQTINTAKDPRWGRIEETLGEDPHLMSLMAVQAVRGMQGDDPNYLKTVACAKHYIANETDNDRTAVSETVDPRSFWEYYVRPFYACVVDGKVFSVMGAYNAVNGIPCCADKNLLTGILRERWGFQGYVTSDCDAIYNIYDPHHYATSLAEACAMGIKAGCDLDCGDTYPRHLGEAFEQHLLEEADLDKAVTRLLTARFLFGDLDPEPRCPYNKIPFSVVDSPKHRALALEAARQSIVLLKNDGILPLDKTALKSVAVIGPTAAIAHLGGYSGAPFLRVSPLSGIAQALGIGIHFDEVYAYQAVRLEGGPQLESSVEQGGTDIGFIKNGSWVEFPATDFAGKNEIEVRVASDTQGGTIEIHLDRLNGPLLCTLQVPHTGGWQNWISLKAPINGVIGKHKLFFLFKGGDGYLLNVAWYRLNPPSPPETHNPNGIALTYQQGCTITGARNDTMFQKAVEAARQADVAIVVAGVNQEVDAEGHDRDDIRLTGAQHELIQAVYQANPKTILVLSTNAPVAVTWEQENLPAIVAAIFAGQAQGTAIADVLFGNYNPSGKLATTWYKSVEDLPDFHDFDITKRTYMYFEGEPLYPFGYGLSYTTFQIGNIQVSHPRLTSGGSITVSVDVTNIGKRAGTEVVQLYVRPPKSPVKRPNKQLVDFKRVELRPGETKRVELSLPYESPALWYWDVAQSKFVLQPGTVTLMVGNSSAHIAHTTTIELV | 1.6% | 0.5% | <3%
365 (protein, Candidatus microthrix) MEDDGANSKTELSDQRKVALLSGADDWHTEAVPELGLEAVMMADGPHGLRKVMSASLADLQASEPATCFPTGSALAATWDRVLAGDVGRAIGREAVAEGVGVVLGPAVNLKRHPAAGRNFEYFSEDPFLAGELAVAWIDGVQGEGVGASLKHFAVNNQEANRMVVDAVVDPATLRELYLGAFEAAVRRSRPWTVMSAYNLLNGVYCSEDPWLLSELLRDQWGFDGLVVTDWGANDDRVAGIRAGQDLEMPGGHGTHDAAVLAALADGSLHRADLDGCVRRVLALLERADGARSGRPGSAMASPRPGADPDALHREHHQLARRAAAAGTVLLTNDGTLPLAPSGHVALIGEFAAHPRFQGGGSSQVKATRSDNLHAELRTHVDAAGGRVQYAPGYVLRARDDRPGEPARRVDEAVSIARGAEVAVVVVGLPDAVESEGFDRDHLHLPESHNILVRAVCAANPNTVVIVVAGSPVTMDWVDQPAAIIHGYLGGQAAGGALADVLVGAAEPGGRLAETFPVRSAGVASDRWFPGEPHQVTYREGPYIGYRWFDASGATPLFPFGHGLSYAEITLGVPTLSAQHVDAGVLLGGTDVVAPAEVPPPGAGPVAFTVTVPLTNAGDRAGSEVVQVYLESPDTGRPAAHRHLVGFAKVNLEPNSTREATVDVHARALCHWHPADRGWAVSAGTWGVAVGCSSGNLPHGLMVEVASSWSAPEPDPALDPYRNPRPDDWDPGVAAFEALLGRSVPEPTPVRPFTRNTTLGELGETRLGRPLLALVRAIVAHTTGGAHDEGGLGAMIDRSLGELPLRNLAVMSQGRVPMSAINRLIALANRMPGHPAGHPPGRPPGRSVGFTRPGRRR | 1.3% | 0.4% | <3%
339 (protein, listed as Koribacter versatilis) MKISRVFLATTLALSMFGSAQRPDPRAELMKKPWMDKNKSADERAELVLKEMTVDEKINLIHGQGMEEMAEFGIPMPNKALGNGGAGFVLGVERLGIPLIQMSDAAYGVRSSAKNGRYSTALPSNLGSAASWDPQAACEYGALIGRELRAQGYNMTLGGGVNITREPRNGRTFEYMGEDPILAGTLVGNRIKCEQAQHVIGDTKHYAVNDQESGRTEVDVVISKRAMRETDLLAFEIGIEIGQPGAVMCSYNLVNGTYACQNKYLLTDVLKKDWNFKGFVVSDWGATHSTIESSAAGLDNEQPFGIFYSDKFKAGLDSGKIPMSELDDHVRRILRTEFASGIVDNPVVKAVVDVEAGLETARKIEEGSIVLLKNGNNILPLDKDSIKSVAIIGEKADFGMISGGGSAQVDPPGPSHEWQAHVWFPTSPLKAVQAKLPNAKVDWRSGSDKSKAAALAKQSDIAIVFVHQWISEGMDLPDLTLPFGQDELIERVAAANPRTIVVLESGTAVTMPWLDKVSGVVEAWYGGSKGADAVANILFGDVNPSGKLPMTFPRSVEDVPHPKLAVPPPNPNPMETYMHPELAKATVTATYDEGVKVGYKWYDAEKKPVLFPFGFGLSYTTYQYSGLKVSSGKTTTVSFTVKNTGKRGGDEIAQVYASLPAEAQEPPKRLVGFTKVHLNAGESKEVSVTVPAKYLSVFDEASNGWKLVPGSYSFMVGGSSQDLPQKQSATF | 1.4% | 0.5% | <3%
229 (protein, listed as Nectria haematococca) MASVDIPAILATLSLEEKVSLLAGKNLWETVPVPSKGVPNVKVSDGPNGARGASFAGGTTAACFPAACLMASTFDVKLAKRIGSALAEETQSKGARCLLAPTMCLHRHPLGGRNFESFSEDPLLTGKMAARVVEGLQDKGVSATIKHFAVNEQETDRLTVDETVNERALRELYLRPFEIAVKEANPWAVMTAYNKINGHHADCHPFTLKKVLRGDWGWNGLVMSDWGGTNSTPDSLEAGLDLEMPGPTRWRKPEDVIAAIKEGKTSEKTIDERATNVLRFLERLGCFKDPTIPDEKAINKPEHQALIREAGSKGIVLLKNQDKILPLSKEKVKGKKIALLGHAKIGLAHGGGSASVSAHYKVTPWDALHEALGDSVEFSYAKGAHTFRTLPAIAENVVGLDGKPGFTFKVYEPGSSEPIETRHGHADSEVSALGSFGFLNKDVSLEGAFTPQETAQYYFTCSGLGPSKLIIDDKVVYEQTENCSDAMGFLFGGVAAPEFKVALEAGRQYKLVLRTSPPSANDREDLGILEGLCGLRVGSMSESEHDRDLVSEAVEVAKNADYAVIFTGHEPFWETEGQDQVSFNLPKDGSQDRLISAVAAANPNTVVVNSTGVAIAMPWLNEIQGFLQTWYPGQECGNSIADVLTGAQTPEGHLTCTFPKKIEDCPAYGNFPGEYDNGKLKVTYKEGVFIGYRHFDRLPADKVNFPFGFGLSYTTFDFSSLEVKESGEGYTASLKVSNTGDVVGAIAVQVYVGAAQTAEENPVKQLVAFEKVTVKPGETASVEVPVRTRDFGFFDESKQKWVVKGGDYKFLIGKSARDIVLESTVAVKEQSFDL | 91.1% | 14.2% | <3%
